According to patent publication US20200299347A1:

Target: FGFR3
Experiment: cell-based or functional assay

“sprifermin (rhFGF18) (from UniProt O76093 28-196) (ligand)” showed an FGF18 EC50 (nM), BaF3/FGFR3 cell proliferation (ATP) assay of 0.02 nM.
